Reference: the supplement of paper PMC9876800

System: peptide library, one residue held at a place counted from the S/T acceptor
Test: relative phosphorylation of the sub-library (ratio to the mean residue at this position); higher = residue favoured
Conditions: human
Method in brief: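 Purified recombinant kinases, either human or orthologue constructs, were incubated in 384-well plates with biotinylated degenerate peptide sub-libraries. Each sub-library fixed one residue at one position around a central Ser/Thr. Peptides at 50 μM and 50 μM ATP spiked with γ-32P-ATP were used for 90 min under kinase-specific conditions, and spots on streptavidin membranes were phosphorimaged and quantified by densitometry. Relative sub-library phosphorylation is expressed as a ratio to the mean residue at that position.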

TAOK1, construct: aa1-356, sequence (Q7L7X3 1-356, looked up): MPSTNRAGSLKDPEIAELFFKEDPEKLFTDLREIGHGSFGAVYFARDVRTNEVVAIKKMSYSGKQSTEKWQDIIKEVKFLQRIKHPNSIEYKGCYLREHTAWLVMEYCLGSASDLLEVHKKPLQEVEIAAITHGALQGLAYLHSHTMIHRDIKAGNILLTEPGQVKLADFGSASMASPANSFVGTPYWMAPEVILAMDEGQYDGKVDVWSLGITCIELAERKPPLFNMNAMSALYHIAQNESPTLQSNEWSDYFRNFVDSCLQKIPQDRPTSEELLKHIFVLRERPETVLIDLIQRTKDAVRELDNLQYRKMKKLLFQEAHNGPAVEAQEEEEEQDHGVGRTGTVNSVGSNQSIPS
BRAF, construct: aa444-721, sequence (P15056 444-721, looked up): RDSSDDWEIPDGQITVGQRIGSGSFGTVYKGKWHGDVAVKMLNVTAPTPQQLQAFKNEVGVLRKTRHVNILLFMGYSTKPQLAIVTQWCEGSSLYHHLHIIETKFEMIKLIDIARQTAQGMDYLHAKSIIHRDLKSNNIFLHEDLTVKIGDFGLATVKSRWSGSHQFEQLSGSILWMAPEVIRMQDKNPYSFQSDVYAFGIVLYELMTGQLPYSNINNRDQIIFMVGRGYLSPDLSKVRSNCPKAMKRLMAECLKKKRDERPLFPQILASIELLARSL

BRAF, construct: aa444-721 (from UniProt P15056)
relative phosphorylation
Conditions | at +1 | at +2 | at +3 | at +4 | at -1 | at -2 | at -3 | at -4 | at -5
A fixed | 0.66 | 0.762 | 0.791 | 0.965 | 1.06 | 1.07 | 1.09 | 0.86 | 1.06
D fixed | 0.675 | 1.38 | 0.941 | 1.09 | 1.92 | 0.748 | 0.994 | 1.52 | 1.48
E fixed | 1.3 | 0.94 | 0.898 | 0.966 | 1.36 | 1 | 1.01 | 1.21 | 1.18
F fixed | 1.44 | 0.67 | 1.06 | 0.762 | 0.539 | 0.983 | 0.935 | 0.684 | 0.7
G fixed | 0.592 | 0.644 | 0.953 | 1.15 | 1.05 | 0.572 | 0.752 | 0.953 | 0.991
H fixed | 0.864 | 1.49 | 0.97 | 1.09 | 1.78 | 1.26 | 0.902 | 0.908 | 1.11
I fixed | 1.95 | 1.09 | 1.1 | 0.733 | 0.422 | 1.64 | 0.712 | 0.488 | 0.701
K fixed | 0.533 | 0.749 | 0.714 | 1.11 | 0.775 | 0.686 | 1.34 | 0.743 | 1.32
L fixed | 1.22 | 0.773 | 1.25 | 0.842 | 0.609 | 1.05 | 1.51 | 0.596 | 0.762
M fixed | 1.26 | 1.23 | 1.22 | 0.826 | 1.23 | 0.931 | 1.27 | 0.629 | 0.897
N fixed | 0.849 | 1.5 | 1.13 | 1.24 | 1.77 | 0.932 | 0.861 | 0.905 | 1.14
P fixed | 0.377 | 0.631 | 0.805 | 1.57 | 0.337 | 0.499 | 0.666 | 0.945 | 1.15
Q fixed | 0.956 | 1.51 | 0.995 | 1 | 1.14 | 0.892 | 0.929 | 0.765 | 0.889
R fixed | 0.673 | 0.848 | 0.902 | 1.08 | 1.17 | 0.839 | 1.46 | 0.629 | 1.06
V fixed | 1.76 | 1.2 | 0.935 | 0.661 | 0.504 | 1.55 | 0.707 | 0.546 | 0.687
W fixed | 0.769 | 0.802 | 1.44 | 1.1 | 0.589 | 1.09 | 1.13 | 3.93 | 1.01
Y fixed | 1.12 | 0.776 | 0.898 | 0.813 | 0.775 | 1.25 | 0.725 | 0.69 | 0.859
pThr fixed | 1.08 | 0.723 | 0.835 | 0.85 | 0.577 | 0.992 | 0.807 | 0.776 | 0.945
pTyr fixed | 0.912 | 0.736 | 0.945 | 0.792 | 1.13 | 1.58 | 0.734 | 0.655 | 1

TAOK1, construct: aa1-356 (from UniProt Q7L7X3)
relative phosphorylation
Conditions | at +1 | at +2 | at +3 | at +4 | at -1 | at -2 | at -3 | at -4 | at -5
A fixed | 0.401 | 0.732 | 0.799 | 0.651 | 0.775 | 1.05 | 0.861 | 0.969 | 0.986
D fixed | 0.16 | 0.494 | 0.336 | 0.409 | 0.645 | 0.589 | 0.515 | 0.911 | 0.93
E fixed | 0.122 | 0.282 | 0.296 | 0.421 | 0.345 | 0.42 | 0.59 | 0.969 | 0.816
F fixed | 1.53 | 0.505 | 0.853 | 0.835 | 1.07 | 1.74 | 0.817 | 0.95 | 0.933
G fixed | 0.352 | 0.705 | 1.06 | 0.773 | 1.47 | 1.42 | 1.73 | 1.29 | 1.18
H fixed | 0.855 | 1.11 | 0.901 | 1.17 | 1.52 | 0.583 | 0.99 | 1.04 | 1.08
I fixed | 1.83 | 0.612 | 0.692 | 0.786 | 0.381 | 0.577 | 0.533 | 0.696 | 0.757
K fixed | 0.504 | 2.83 | 2.32 | 1.79 | 1.15 | 1.02 | 2.24 | 1.29 | 1.36
L fixed | 1.85 | 0.54 | 0.809 | 0.727 | 1.08 | 0.629 | 0.554 | 0.728 | 0.773
M fixed | 2.05 | 0.721 | 0.686 | 0.861 | 1.45 | 0.92 | 0.661 | 0.873 | 0.88
N fixed | 0.398 | 1.46 | 0.87 | 0.805 | 1.31 | 0.9 | 0.875 | 0.999 | 0.982
P fixed | 0.319 | 0.777 | 1.13 | 0.711 | 0.47 | 0.858 | 0.988 | 1.01 | 1.02
Q fixed | 0.461 | 0.837 | 0.762 | 0.759 | 0.746 | 0.742 | 0.879 | 0.937 | 0.844
R fixed | 0.559 | 3.26 | 2.89 | 2.44 | 1.44 | 1.08 | 1.81 | 1.39 | 1.24
V fixed | 1.21 | 0.723 | 0.602 | 0.635 | 0.419 | 0.658 | 0.505 | 0.765 | 0.821
W fixed | 2.88 | 0.622 | 1.08 | 1.76 | 0.996 | 1.13 | 1.06 | 1.05 | 1.21
Y fixed | 1.52 | 0.794 | 0.916 | 1.46 | 1.73 | 2.68 | 1.39 | 1.13 | 1.18
pThr fixed | 0.365 | 0.32 | 0.327 | 0.386 | 0.306 | 0.469 | 0.667 | 0.78 | 0.881
pTyr fixed | 0.295 | 0.337 | 0.45 | 0.432 | 1.56 | 0.733 | 0.622 | 0.777 | 0.963
